{"source": "paper PMC7532178", "about": "“Interaction of protocadherin-15 with the scaffold protein whirlin supports its anchoring of hair-bundle lateral links in cochlear hair cells” (Scientific Reports, 2020)", "conditions_in_all_cases": "both partners purified", "key": {"[1]": {"biological_target": "T1, whirlin-NTR-PDZ1-Hp1 (aa residues 2-265) (mouse, UniProt Q80VW5-1 2-265)", "T1 construct": "extra 7 aa at the N-terminus of all recombinant proteins of the study; whirlin (long isoform, L-whirlin), residues 2-265: NTR (with HHD1), PDZ1 and hairpin Hp1; The methods call the 2-265 construct whirlin-NTR-PDZ1; also called NTR-PDZ1-Hp1 whirlin fragment; Nter-PDZ1-Hp1; source: E. coli BL21 (DE3) codonPlus-RIPL, purified (Glutathione Sepharose 4B, GST removed by TEV proteinase, SEC)", "T1 sequence": "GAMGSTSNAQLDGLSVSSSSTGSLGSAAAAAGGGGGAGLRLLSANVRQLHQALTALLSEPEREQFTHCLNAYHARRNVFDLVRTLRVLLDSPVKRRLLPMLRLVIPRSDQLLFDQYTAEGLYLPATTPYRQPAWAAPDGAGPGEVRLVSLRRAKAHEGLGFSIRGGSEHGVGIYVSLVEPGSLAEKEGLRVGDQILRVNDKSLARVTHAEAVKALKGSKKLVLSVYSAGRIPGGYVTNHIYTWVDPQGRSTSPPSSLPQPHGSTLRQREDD", "assay": "SPR; ProteOn XPR 36; N-terminally biotinylated peptides captured on a Neutravidin NLC sensor chip, whirlin fragments flowed as analytes at 20 μL/min for 2 min; 250 mM NaCl, 50 mM Tris pH 7.5, 0.5 mM TCEP; steady-state fit Req = (Rmax*C)/(Kd+C); mean of three experiments; Figure 4B shows the responses at 10 μM"}, "[2]": {"biological_target": "T2, harmonin-NTD-PDZ1 (aa 1-192) (UniProt Q9ES64 1-192)", "T2 construct": "extra 7 aa at the N-terminus of all recombinant proteins of the study; harmonin, residues 1-192 (NTD and PDZ1), numbers on GenBank AF228925.1; also called NTD-PDZ1-Hp domain of harmonin; source: E. coli BL21 (DE3) codonPlus-RIPL, purified (Glutathione Sepharose 4B, GST removed by TEV proteinase, SEC)", "T2 sequence": "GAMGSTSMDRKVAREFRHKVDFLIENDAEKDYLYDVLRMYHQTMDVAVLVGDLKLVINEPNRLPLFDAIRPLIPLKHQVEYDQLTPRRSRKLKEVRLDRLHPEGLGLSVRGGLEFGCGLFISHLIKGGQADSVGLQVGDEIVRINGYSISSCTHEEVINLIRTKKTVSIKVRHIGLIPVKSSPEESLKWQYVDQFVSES", "assay": "SPR; harmonin fragments or full-length harmonin-a1 with C-terminal peptides; Fig. S10 and data not shown"}, "[3]": {"biological_target": "T3, harmonin-PDZ2 (aa residues 197-308) (UniProt Q9ES64 197-308)", "T3 construct": "extra 7 aa at the N-terminus of all recombinant proteins of the study; harmonin, residues 197-308 (PDZ2), numbers on GenBank AF228925.1; also called PDZ2 domain of harmonin; source: E. coli BL21 (DE3) codonPlus-RIPL, purified (Glutathione Sepharose 4B, GST removed by TEV proteinase, SEC)", "T3 sequence": "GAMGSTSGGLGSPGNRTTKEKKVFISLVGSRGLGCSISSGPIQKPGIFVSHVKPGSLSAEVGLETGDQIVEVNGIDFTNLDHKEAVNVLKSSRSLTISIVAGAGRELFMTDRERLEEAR", "assay": "SPR; harmonin fragments or full-length harmonin-a1 with C-terminal peptides; Fig. S10 and data not shown"}}, "note": "No end group written: not given here. *: point of attachment. Biotin = O=C1N[C@H]2[C@H](CS[C@H]2CCCCC(=O)*)N1; TTDS = trioxatridecan-succinamic acid spacer", "data": [{"binder": "{Biotin-TTDS}-GIDVQPHSQSTSL (C-terminal 13 aa of protocadherin-15 isoform CD1, including the PBM; source: synthetic peptide (Eurogentec); not shown: biotin, N-terminal, kept)", "note": "[PCDH15-CD1 C-terminal peptide (biotin-TTDS-GIDVQPHSQSTSL)]", "values": [{"measurement": "Kd", "setting": "[1]", "result": 8.8, "unit": "µM"}, {"measurement": "Kd", "setting": "[2]", "result": "> 200", "unit": "µM"}, {"measurement": "Kd", "setting": "[3]", "result": "> 200", "unit": "µM"}]}, {"binder": "{Biotin-TTDS}-MGPWNSLHIPMTKL (C-terminal 14 aa of protocadherin-15 isoform CD3, including the PBM; source: synthetic peptide (Eurogentec); not shown: biotin, N-terminal, kept)", "note": "[PCDH15-CD3 C-terminal peptide (biotin-TTDS-MGPWNSLHIPMTKL)]", "values": [{"measurement": "Kd", "setting": "[1]", "result": 4.2, "unit": "µM"}, {"measurement": "Kd", "setting": "[2]", "result": "> 200", "unit": "µM"}, {"measurement": "Kd", "setting": "[3]", "result": "> 200", "unit": "µM"}]}, {"binder": "{Biotin-TTDS}-GANSEQYNTAL (C-terminal 11 aa of protocadherin-15 isoform CD2, including the PBM; source: synthetic peptide (Eurogentec); not shown: biotin, N-terminal, kept)", "note": "[PCDH15-CD2 C-terminal peptide (biotin-TTDS-GANSEQYNTAL)]", "values": [{"measurement": "Kd", "setting": "[1]", "result": 8.5, "unit": "µM"}, {"measurement": "Kd", "setting": "[2]", "result": "> 200", "unit": "µM"}, {"measurement": "Kd", "setting": "[3]", "result": "> 200", "unit": "µM"}]}]}
